Earlier results as cited in paper PMC2939181.

Biological target: CPT-1 (UniProt P50416)
Assay: FRET

Sequence of UniProt P50416 (P50416 2-773): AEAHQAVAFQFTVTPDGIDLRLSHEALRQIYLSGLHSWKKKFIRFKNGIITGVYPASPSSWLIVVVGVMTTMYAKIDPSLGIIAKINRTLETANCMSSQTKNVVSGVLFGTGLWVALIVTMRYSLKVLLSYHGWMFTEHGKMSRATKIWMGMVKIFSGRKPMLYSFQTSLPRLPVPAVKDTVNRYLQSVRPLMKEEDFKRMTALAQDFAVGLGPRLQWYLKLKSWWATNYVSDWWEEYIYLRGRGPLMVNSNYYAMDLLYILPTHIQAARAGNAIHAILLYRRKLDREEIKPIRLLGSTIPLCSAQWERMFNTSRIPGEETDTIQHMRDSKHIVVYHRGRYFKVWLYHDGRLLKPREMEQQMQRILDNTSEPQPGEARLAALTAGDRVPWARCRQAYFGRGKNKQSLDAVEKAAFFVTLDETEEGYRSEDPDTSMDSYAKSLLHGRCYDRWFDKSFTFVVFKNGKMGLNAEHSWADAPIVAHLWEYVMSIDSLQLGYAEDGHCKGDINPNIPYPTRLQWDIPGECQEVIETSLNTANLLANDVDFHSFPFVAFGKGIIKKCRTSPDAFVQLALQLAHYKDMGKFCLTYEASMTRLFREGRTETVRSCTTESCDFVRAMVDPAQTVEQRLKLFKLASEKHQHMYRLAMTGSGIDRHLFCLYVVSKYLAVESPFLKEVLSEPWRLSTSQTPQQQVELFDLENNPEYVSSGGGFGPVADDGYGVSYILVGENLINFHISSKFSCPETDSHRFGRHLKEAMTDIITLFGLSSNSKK

For L-FABP (from UniProt P07148), the Kd is given as 2.1 nM.
